Assay results as given in paper PMC5809386, “Cadherin-26 (CDH26) regulates airway epithelial cell cytoskeletal structure and polarity” (Cell Discovery, 2018).

Target: the molecule itself
Assay: SEC; analytical size exclusion chromatography of recombinant CDH26A, 'in cell lysates'; details in the Supplementary Information

B1: full-length recombinant CDH26A (cadherin-26, transcript variant A) (natural protein, human, UniProt Q8IXH8-4 28-832, looked up)
chain: DSVQQETDDLTKQTKEKIYQPLRRSKRRWVITTLELEEEDPGPFPKLIGELFNNMSYNMSLMYLISGPGVDEYPEIGLFSLEDHENGRIYVHRPVDREMTPSFTVYFDVVERSTGKIVDTSLIFNIRISDVNDHAPQFPEKEFNITVQENQSAGQPIFQMLAVDLDEENTPNSQVLYFLISQTPLLKESGFRVDRLSGEIRLSGCLDYETAPQFTLLIRARDCGEPSLSSTTTVHVDVQEGNNHRPAFTQENYKVQIPEGRASQGVLRLLVQDRDSPFTSAWRAKFNILHGNEEGHFDISTDPETNEGILNVIKPLDYETRPAQSLIIVVENEERLVFCERGKLQPPRKAAASATVSVQVTDANDPPAFHPQSFIVNKEEGARPGTLLGTFNAMDPDSQIRYELVHDPANWVSVDKNSGVVITVEPIDRESPHVNNSFYVIIIHAVDDGFPPQTATGTLMLFLSDINDNVPTLRPRSRYMEVCESAVHEPLHIEAEDPDLEPFSDPFTFELDNTWGNAEDTWKLGRNWGQSVELLTLRSLPRGNYLVPLFIGDKQGLSQKQTVHVRICPCASGLTCVELADAEVGLHVGALFPVCAAFVALAVALLFLLRCYFVLEPKRHGCSVSNDEGHQTLVMYNAESKGTSAQTWSDVEGQRPALLICTAAAGPTQGVKDLEEVPPSAASQSAQARCALGSWGYGKPFEPRSVKNIHSTPAYPDATMHRQLLAPVEGRMAETLNQKLHVANVLEDDPGYLPHVYSEEGECGGAPSLSSLASLEQELQPDLLDSLGSKATPFEEIYSESGVPS
notes: cadherin-26 (CDH26), human, product of transcript variant A (NM_177980; 18 exons; predicted protein molecular weight 92.4 kDa); full-length recombinant protein; also called rCDH26A; source: purified by the University of North Carolina Protein Expression and Purification Core Facility; for the analytical SEC 'in cell lysates'
binding result: binds
